Results taken from article PMC10622425.

Biological target: M2 protein of human Influenza A virus A/WSN/33 (H1N1), wild type (Influenza A virus A/WSN/33 (H1N1))
Test: co-IP

B1: human DHHC20 fused at its C-terminus to a myc-tag (enzyme)
chain: TLWRCCQRVVGWVPVLFITFVVVWSYYAYVVELCVFTIFGNEENGKTVVYLVAFHLFFVMFVWSYWMTIFTSPASPSKEFYLSNSEKERYEKEFSQERQQEILRRAARALPIYTTSASKTIRYCEKCQLIKPDRAHHCSACDSCILKMDHHCPWVNNCVGFSNYKFFLLFLLYSLLYCLFVAATVLEYFIKFWTNELTDTRAKFHVLFLFFVSAMFFISVLSLFSYHCWLVGKNRTTIESFRAPTFSYGPDGNGFSLGCSKNWRQVFGDEKKYWLLPIFSSLGDGCSFPTRLVGM
  percent of total DHHC20-myc co-precipitated: 1%
